The supplement of paper PMC10065799, “High-throughput profiling of sequence recognition by tyrosine kinases and SH2 domains using bacterial peptide display” (eLife, 2023)

These sequences were tested on AncSZ (assay: phosphorylation enrichment, bacterial display (enrichment ratio); higher = better substrate or ligand; peptides without Tyr show the background).
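Note: 11-residue human phosphosite peptides and single-mutation variants displayed on the E. coli surface, counted by deep sequencing, each peptide's frequency after selection divided by its frequency in the unselected input library; frequency after pTyr selection over input frequency; kinase dosed for 20-30% of maximal phosphorylation in three min.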

| Sequence | phosphorylation enrichment |
| --- | --- |
| KVGNEYITKGQ [MYH7_Y410_V411I] | 0.593 |
| GFQPDYGQPAG [SYP_Y278_YF] | 0.583 |
| NYYDTYIKTCL [IQGAP2_Y1445] | 1.93 |
| GFSDPYVKASL [SYT3_Y470] | 0.568 |
| KLGDVYVNVAF [PGK1_Y161_D164V] | 1.13 |
| HQNGMYGLHQD [SGSH_Y89] | 0.643 |
| TSSGGYRRTPS [ABI1_Y333] | 0.499 |
| EIVYVYVKKRS [DNAI2_Y7] | 1.29 |
| GMSQAYSSSQR [DES_Y5] | 0.466 |
| EMFNPYYGLFE [NEDD4L_Y679] | 2.04 |
| RRLEPYGENFN [APOA4_Y310_V307L] | 1.04 |
| IVRSLYEDVED [VHL_Y185_L188V] | 1.3 |
| DLRGIYQKLVI | 0.826 |
| GEKKAYVRLAP [RPL23A_Y137] | 0.548 |
| IPGMEYLVSII [TNC_Y1775_V1773M] | 1.44 |
| RAYSWYQHQRA [NDST1_Y714] | 1.03 |
| NYCPGYNNFYN [USH2A_Y467_R464C] | 0.988 |
| IVLRSYPASGH [NID2_Y449] | 0.726 |
| RALCHYYKLNI [ETV6_Y401_R399C] | 1.88 |
| FAFQLYDLDRD [CHP2_Y123_YF] | 1.06 |
| MPPHIYAITDT [MYH9_Y151] | 0.709 |
| LENSTYQYIRV [CRB1_Y760] | 2.11 |
| ADFFDYGRGLS [KHDRBS3_Y304_H306R_YF] | 0.808 |
| RRMLQYLTVND [PPFIBP2_Y663] | 0.803 |
| DDFNLYINVKL [MTHFD1_Y52_S49F] | 1.47 |
| NVADHYGVYKP [ATP6V0D2_Y271] | 0.571 |
| KWHREYNFKYV [RICTOR_Y835_S837F] | 1.04 |
| SQETYYRVSNM [ABCD1_Y181_Q178E] | 1.37 |
| GEVKAYGAGLL [TH_Y419] | 0.497 |

The sequences below were run against EPHB1 (UniProt P54762) in the same assay as above.
Sequence of EPHB1 (P54762 whole entry, looked up): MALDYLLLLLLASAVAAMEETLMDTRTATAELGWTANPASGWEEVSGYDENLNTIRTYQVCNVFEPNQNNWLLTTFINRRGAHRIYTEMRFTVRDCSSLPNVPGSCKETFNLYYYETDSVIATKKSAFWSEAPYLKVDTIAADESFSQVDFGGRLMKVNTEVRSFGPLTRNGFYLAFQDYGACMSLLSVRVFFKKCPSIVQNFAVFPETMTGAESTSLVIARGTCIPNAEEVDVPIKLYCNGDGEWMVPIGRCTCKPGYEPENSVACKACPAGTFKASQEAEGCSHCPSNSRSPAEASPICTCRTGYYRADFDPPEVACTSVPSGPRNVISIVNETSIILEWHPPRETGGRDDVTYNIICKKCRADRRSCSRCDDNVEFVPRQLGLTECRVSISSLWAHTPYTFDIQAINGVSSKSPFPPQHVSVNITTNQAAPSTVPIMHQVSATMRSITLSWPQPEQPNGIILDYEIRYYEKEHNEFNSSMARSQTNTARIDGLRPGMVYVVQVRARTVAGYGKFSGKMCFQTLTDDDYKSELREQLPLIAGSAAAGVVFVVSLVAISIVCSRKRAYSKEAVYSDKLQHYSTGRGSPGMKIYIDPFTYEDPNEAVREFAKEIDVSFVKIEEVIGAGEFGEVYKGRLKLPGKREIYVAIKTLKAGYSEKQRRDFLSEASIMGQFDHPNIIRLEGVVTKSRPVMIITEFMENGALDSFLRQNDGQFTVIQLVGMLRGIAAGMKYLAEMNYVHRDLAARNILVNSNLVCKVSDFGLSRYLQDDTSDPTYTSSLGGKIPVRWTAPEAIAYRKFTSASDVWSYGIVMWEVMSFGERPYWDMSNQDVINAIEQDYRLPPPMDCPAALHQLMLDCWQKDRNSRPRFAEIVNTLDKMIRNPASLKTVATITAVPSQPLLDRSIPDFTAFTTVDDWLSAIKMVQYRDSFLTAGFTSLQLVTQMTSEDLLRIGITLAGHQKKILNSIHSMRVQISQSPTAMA

| Sequence | phosphorylation enrichment |
| --- | --- |
| KVGNEYITKGQ [MYH7_Y410_V411I] | 0.358 |
| GFQPDYGQPAG [SYP_Y278_YF] | 0.443 |
| NYYDTYIKTCL [IQGAP2_Y1445] | 5.9 |
| GFSDPYVKASL [SYT3_Y470] | 0.329 |
| KLGDVYVNVAF [PGK1_Y161_D164V] | 0.801 |
| HQNGMYGLHQD [SGSH_Y89] | 0.346 |
| TSSGGYRRTPS [ABI1_Y333] | 0.355 |
| EIVYVYVKKRS [DNAI2_Y7] | 0.555 |
| GMSQAYSSSQR [DES_Y5] | 0.379 |
| EMFNPYYGLFE [NEDD4L_Y679] | 5.74 |
| RRLEPYGENFN [APOA4_Y310_V307L] | 0.398 |
| IVRSLYEDVED [VHL_Y185_L188V] | 0.611 |
| DLRGIYQKLVI | 1.81 |
| GEKKAYVRLAP [RPL23A_Y137] | 0.363 |
| IPGMEYLVSII [TNC_Y1775_V1773M] | 0.65 |
| RAYSWYQHQRA [NDST1_Y714] | 0.538 |
| NYCPGYNNFYN [USH2A_Y467_R464C] | 0.888 |
| IVLRSYPASGH [NID2_Y449] | 0.532 |
| RALCHYYKLNI [ETV6_Y401_R399C] | 1.09 |
| FAFQLYDLDRD [CHP2_Y123_YF] | 1.23 |
| MPPHIYAITDT [MYH9_Y151] | 1.4 |
| LENSTYQYIRV [CRB1_Y760] | 12.1 |
| ADFFDYGRGLS [KHDRBS3_Y304_H306R_YF] | 0.426 |
| RRMLQYLTVND [PPFIBP2_Y663] | 0.417 |
| DDFNLYINVKL [MTHFD1_Y52_S49F] | 0.86 |
| NVADHYGVYKP [ATP6V0D2_Y271] | 0.401 |
| KWHREYNFKYV [RICTOR_Y835_S837F] | 0.454 |
| SQETYYRVSNM [ABCD1_Y181_Q178E] | 4.42 |
| GEVKAYGAGLL [TH_Y419] | 0.309 |

These sequences were tested against EPHB2 (UniProt P29323) in the same assay as above.
Sequence of EPHB2 (P29323 whole entry, looked up): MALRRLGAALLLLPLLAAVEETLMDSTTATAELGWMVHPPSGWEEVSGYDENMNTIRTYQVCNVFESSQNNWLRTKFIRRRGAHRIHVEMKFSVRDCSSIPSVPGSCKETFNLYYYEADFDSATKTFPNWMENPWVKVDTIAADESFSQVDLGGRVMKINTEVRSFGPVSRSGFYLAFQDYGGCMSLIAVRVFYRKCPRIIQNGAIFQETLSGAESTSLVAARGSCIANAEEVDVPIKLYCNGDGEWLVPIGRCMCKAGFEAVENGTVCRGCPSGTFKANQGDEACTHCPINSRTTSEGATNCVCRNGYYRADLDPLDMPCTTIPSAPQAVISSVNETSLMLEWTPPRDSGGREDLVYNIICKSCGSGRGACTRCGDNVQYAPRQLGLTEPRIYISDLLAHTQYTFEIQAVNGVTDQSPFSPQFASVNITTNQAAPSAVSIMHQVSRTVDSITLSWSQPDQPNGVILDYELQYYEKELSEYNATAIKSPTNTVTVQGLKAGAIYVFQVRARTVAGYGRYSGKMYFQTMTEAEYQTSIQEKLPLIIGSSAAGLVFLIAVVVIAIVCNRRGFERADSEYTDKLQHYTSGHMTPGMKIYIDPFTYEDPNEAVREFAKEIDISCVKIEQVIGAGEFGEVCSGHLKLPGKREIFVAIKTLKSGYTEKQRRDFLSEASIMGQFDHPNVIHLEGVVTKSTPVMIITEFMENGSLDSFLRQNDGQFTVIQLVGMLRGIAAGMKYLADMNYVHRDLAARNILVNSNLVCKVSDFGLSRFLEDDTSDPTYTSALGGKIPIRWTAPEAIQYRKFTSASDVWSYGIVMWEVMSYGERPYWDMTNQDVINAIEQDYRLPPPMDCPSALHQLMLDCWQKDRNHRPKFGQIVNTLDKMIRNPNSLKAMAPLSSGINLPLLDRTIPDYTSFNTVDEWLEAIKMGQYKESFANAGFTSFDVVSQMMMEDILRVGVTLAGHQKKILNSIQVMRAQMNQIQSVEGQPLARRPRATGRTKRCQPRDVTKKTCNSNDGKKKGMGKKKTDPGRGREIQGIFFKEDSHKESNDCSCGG

| Sequence | phosphorylation enrichment |
| --- | --- |
| KVGNEYITKGQ [MYH7_Y410_V411I] | 0.414 |
| GFQPDYGQPAG [SYP_Y278_YF] | 0.431 |
| NYYDTYIKTCL [IQGAP2_Y1445] | 5.75 |
| GFSDPYVKASL [SYT3_Y470] | 0.436 |
| KLGDVYVNVAF [PGK1_Y161_D164V] | 0.632 |
| HQNGMYGLHQD [SGSH_Y89] | 0.591 |
| TSSGGYRRTPS [ABI1_Y333] | 0.532 |
| EIVYVYVKKRS [DNAI2_Y7] | 0.57 |
| GMSQAYSSSQR [DES_Y5] | 0.321 |
| EMFNPYYGLFE [NEDD4L_Y679] | 5.92 |
| RRLEPYGENFN [APOA4_Y310_V307L] | 0.317 |
| IVRSLYEDVED [VHL_Y185_L188V] | 0.701 |
| DLRGIYQKLVI | 1.32 |
| GEKKAYVRLAP [RPL23A_Y137] | 0.323 |
| IPGMEYLVSII [TNC_Y1775_V1773M] | 0.855 |
| RAYSWYQHQRA [NDST1_Y714] | 0.716 |
| NYCPGYNNFYN [USH2A_Y467_R464C] | 0.753 |
| IVLRSYPASGH [NID2_Y449] | 0.451 |
| RALCHYYKLNI [ETV6_Y401_R399C] | 1.16 |
| FAFQLYDLDRD [CHP2_Y123_YF] | 0.673 |
| MPPHIYAITDT [MYH9_Y151] | 0.514 |
| LENSTYQYIRV [CRB1_Y760] | 5.02 |
| ADFFDYGRGLS [KHDRBS3_Y304_H306R_YF] | 0.522 |
| RRMLQYLTVND [PPFIBP2_Y663] | 0.584 |
| DDFNLYINVKL [MTHFD1_Y52_S49F] | 0.563 |
| NVADHYGVYKP [ATP6V0D2_Y271] | 0.391 |
| KWHREYNFKYV [RICTOR_Y835_S837F] | 0.392 |
| SQETYYRVSNM [ABCD1_Y181_Q178E] | 2.95 |
| GEVKAYGAGLL [TH_Y419] | 0.459 |

What follows are sequences tested against FGFR1 (UniProt P11362) in the same assay as above.
Sequence of FGFR1 (P11362 whole entry, looked up): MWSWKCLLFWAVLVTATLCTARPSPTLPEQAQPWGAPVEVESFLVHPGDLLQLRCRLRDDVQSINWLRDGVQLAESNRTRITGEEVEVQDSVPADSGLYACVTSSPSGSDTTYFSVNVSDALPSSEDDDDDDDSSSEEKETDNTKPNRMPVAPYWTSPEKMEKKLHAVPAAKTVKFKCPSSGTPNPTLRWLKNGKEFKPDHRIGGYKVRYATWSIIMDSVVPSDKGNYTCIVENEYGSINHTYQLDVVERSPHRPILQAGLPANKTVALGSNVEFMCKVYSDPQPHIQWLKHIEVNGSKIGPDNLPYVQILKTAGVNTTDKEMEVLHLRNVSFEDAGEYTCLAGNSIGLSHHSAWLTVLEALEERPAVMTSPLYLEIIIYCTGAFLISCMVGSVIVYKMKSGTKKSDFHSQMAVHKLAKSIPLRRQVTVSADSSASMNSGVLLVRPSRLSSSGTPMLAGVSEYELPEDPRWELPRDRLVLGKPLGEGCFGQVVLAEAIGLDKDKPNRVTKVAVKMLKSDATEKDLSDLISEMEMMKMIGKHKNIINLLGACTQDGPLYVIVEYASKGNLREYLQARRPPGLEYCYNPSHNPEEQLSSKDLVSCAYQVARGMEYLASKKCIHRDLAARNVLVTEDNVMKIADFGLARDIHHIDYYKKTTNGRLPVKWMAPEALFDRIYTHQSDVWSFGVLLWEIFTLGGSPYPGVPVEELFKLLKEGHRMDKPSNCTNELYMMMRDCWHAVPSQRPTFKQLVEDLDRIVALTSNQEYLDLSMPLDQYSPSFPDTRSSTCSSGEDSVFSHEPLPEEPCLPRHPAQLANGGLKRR

| Sequence | phosphorylation enrichment |
| --- | --- |
| KVGNEYITKGQ [MYH7_Y410_V411I] | 0.444 |
| GFQPDYGQPAG [SYP_Y278_YF] | 0.478 |
| NYYDTYIKTCL [IQGAP2_Y1445] | 7.55 |
| GFSDPYVKASL [SYT3_Y470] | 0.444 |
| KLGDVYVNVAF [PGK1_Y161_D164V] | 1.01 |
| HQNGMYGLHQD [SGSH_Y89] | 0.673 |
| TSSGGYRRTPS [ABI1_Y333] | 0.386 |
| EIVYVYVKKRS [DNAI2_Y7] | 0.52 |
| GMSQAYSSSQR [DES_Y5] | 0.32 |
| EMFNPYYGLFE [NEDD4L_Y679] | 5.41 |
| RRLEPYGENFN [APOA4_Y310_V307L] | 0.266 |
| IVRSLYEDVED [VHL_Y185_L188V] | 0.502 |
| DLRGIYQKLVI | 0.825 |
| GEKKAYVRLAP [RPL23A_Y137] | 0.425 |
| IPGMEYLVSII [TNC_Y1775_V1773M] | 0.72 |
| RAYSWYQHQRA [NDST1_Y714] | 0.472 |
| NYCPGYNNFYN [USH2A_Y467_R464C] | 0.638 |
| IVLRSYPASGH [NID2_Y449] | 0.392 |
| RALCHYYKLNI [ETV6_Y401_R399C] | 9.12 |
| FAFQLYDLDRD [CHP2_Y123_YF] | 0.467 |
| MPPHIYAITDT [MYH9_Y151] | 0.59 |
| LENSTYQYIRV [CRB1_Y760] | 13 |
| ADFFDYGRGLS [KHDRBS3_Y304_H306R_YF] | 0.414 |
| RRMLQYLTVND [PPFIBP2_Y663] | 0.63 |
| DDFNLYINVKL [MTHFD1_Y52_S49F] | 0.511 |
| NVADHYGVYKP [ATP6V0D2_Y271] | 0.461 |
| KWHREYNFKYV [RICTOR_Y835_S837F] | 0.358 |
| SQETYYRVSNM [ABCD1_Y181_Q178E] | 6.81 |
| GEVKAYGAGLL [TH_Y419] | 0.453 |
